B1: nanobody NM1229 (VHH)
VHH: EVQLQESGGGLVQPGESLRLSCAASGRTHDWYTMGWFRQAPGKEREFVARINWSSGMTYYADSVKGRFTISRDNPKNTVYLQMNSLTPDDTAVYYCNVHPFTSPDYWGQGTRVTVSS
B2: nanobody NM1230 (VHH)
VHH: QVQLVESGGGLVRPGGSLRLSCVGSGFTFSGYAMNWYRQAPGKALELVAGISNAGDLTHYEEPMKGRVAISRANDKNTVYLQMDDLKPEDTAVYRCHAPGVRVGTGERKDVWGQGAQVTVSS

Biological target: receptor binding domain (RBD) of the SARS-CoV-2 Spike protein (SARS-CoV-2, UniProt P0DTC2 319-541)

Binder | IC50 [nM] | Kd [nM]
B1 | 38 | 
B2 | 2.12 | 8.23
